Source: US20240245799A1, “PREPARATION METHOD FOR ANTIBODY-DRUG CONJUGATE, AND APPLICATION” (priority 2021, published 2024)

Tests used:
[1] = system: NCI-H2170, LK-2 and MDA-MB-231 tumor cells; experiment: In vitro cytotoxic activity test, overall statements on the tumor cells of Table 1; format: cell-based, human; details: statement on Table 1
Experimental: Human lung squamous carcinoma cell NCI-H2170 and LK-2, and human breast cancer cell MDA-MB-231 were selected as the cell lines for in vitro activity detection in this experiment. The expression profile of the TROP2 antigen on the surfaces of the above human tumor cells (represented by rMFI) was determined by flow cytometry (FACS). At the same time, the dose-effect profiles of Antibody Conjugate 13, DS-1062a (the control drug, prepared according to the method described in U.S. Ser. No. 11/173,213B2), the hIgG-deruxtecan conjugate and the hIgG-A-11 conjugate on cell killing were observed. The final concentrations of the antibody drug conjugates after addition were designed as a series of 9 concentrations from […] with 500 nM as the initial concentration. The changes in killing (or inhibition) over 120 hours were observed. Chemiluminescence staining (Luminescent Cell Viability Assay) was carried out, and IC50 was calculated after reading the […] data.

[2] = system: Human lung squamous carcinoma cells NCI-H2170; experiment: In vivo anti-tumor experiment, subcutaneous NCI-H2170 xenograft; set-up: species or system female nude mice; details: single dose of 5 mg/kg intravenously on day 0, FIG. 28
Experimental: The efficacy of the combination of the present invention can be measured in vivo, i.e., an allograft or xenograft of cancer cells was implanted in rodents, and the tumors were treated with the combination. Test mice were treated with drugs or controls and monitored for several weeks or longer to measure the time to tumor doubling, log cell killing, and tumor inhibition.
Human lung squamous carcinoma cells NCI-H2170 (ATCC) were suspended in physiological saline. 4×10^7 cells were subcutaneously transplanted into the right flank of female nude mice, which were randomized into groups on day 6. Taking the grouping day as day 0, Antibody Conjugate 13, DS-1062a (the positive control drug) and the hIgG-A-11 conjugate as a negative control group were administered intravenously to the tail at a dose of 5 mg/kg respectively on day 0.

B1: DS-1062a (conjugate, chains of the INN, looked up)
VH: QVQLVQSGAEVKKPGASVKVSCKASGYTFTTAGMQWVRQAPGQGLEWMGWINTHSGVPKYAEDFKGRVTISADTSTSTAYLQLSSLKSEDTAVYYCARSGFGSSYWYFDVWGQGTLVTVSS
VL: DIQMTQSPSSLSASVGDRVTITCKASQDVSTAVAWYQQKPGKAPKLLIYSASYRYTGVPSRFSGSGSGTDFTLTISSLQPEDFAVYYCQQHYITPLTFGQGTKLEIK
modifications: deruxtecan payload
[1]
  inhibition of tumor cell proliferation / in vitro anti-tumor activity: could inhibit tumor cell proliferation significantly
[2]
  in vivo anti-tumor activity: showed anti-tumor activity
